Article PMC5041007, “AglM and VNG1048G, Two Haloarchaeal UDP-Glucose Dehydrogenases, Show Different Salt-Related Behaviors” (Life, 2016)

Target: the molecule itself
Experiment: SEC; Hi-Load Superdex 200 16/60 directly after Ni-NTA chromatography; 2 M NaCl, 5 mM MgCl2, 50 mM Tris-HCl, pH 9.2; 1 mL/min; masses from a calibration curve of marker proteins (12.4-200 kDa)

B1: Haloferax volcanii AglM, C-terminally polyhistidine-tagged (enzyme, UniProt D4GYH5 1-430, looked up)
chain: MELSIIGSGYVGTTIAACFAELGHDVVNVDIDEDIVASLNDGQAPIHEPGLAELVERYAGDRLRATTDYDEILDTDATFLALPTPSTDDGSIDLGAMKTAATSLGETLARKDDSHLVVTKSTVVPRTTVDVIGPRIEEASGKRVGDGLDIAMNPEFLREGTAVDDFLSPDKIVLGAQTDRAYETLAEIFAPLVERAGNPPVVKTGISEAEMIKYANNAFLASKISLANDLANICKVFGVDSAEVLESIGLDSRIGSAFLGAGLGWGGSCFPKDTAAIIAAARAQGYEPRLLQAAVDVNDGQPERMLDLLRERFDLDGKRVAVLGLAFKPGTDDIRKSRAILLIQALLDAGADVVGYDPVATENMRERFPDIDYADSAADALANADAALVATDWDEFAALDDEFDAMRERIVIDGRRIVTRREGLDYESLV
notes: AglM, UDP-glucose dehydrogenase of Haloferax volcanii, 430 residues; gene amplified from genomic DNA with primers at the start and end of the gene; Calculated mass of the His-tagged chain close to 47 kDa; also called His-tagged AglM; UDP-glucose dehydrogenase; source: Hfx. volcanii cells transformed with pHis-AglM, purified (Ni-NTA, then size-exclusion chromatography); not shown: polyhistidine, …
Question: B1 was tested. Which “stoichiometry N” value did it give?
Answer: Its value is 12.
